Experimental findings from a protein production outcome set (Wang et al. 2014) are described below.

This data set in a line: label from the status in PepcDB records.

As to “ECPAVVAVVARGSEQNLQIRPARYSEESPWTSNGFEEKNFRSFFGRMEKHYRESTGESLMKDVYVMGLNNIEYPASLPLSSEGSSAIELGTSISSGRDNVISAIDRFESATGCTPKYLLAGYSQGVLIVDGYEEELIARDQYLGTLHIANPAQQVDDPTLVGHEVTTGGLASSVEPVEDNPFKVSYCLPGDIVCDRSFEQFSAAGSSIAAAQLSTGNIRPGRVHVQYFVTTQPWDEQIFDEVASWIEAA”, the protein production result is “failed”.
On to “EDDYYYPSVKLEFVTVKAGTDGSIQTLIPDNGEALTVSKDRTGSAISPNTSRRVMSNYETLSNGHTATAVIYSLQSLVTPTPKPADDPTYRDGLKHDPVDVVSIWLGRGYLNMILNLKVNGGKQHVFGIVEDLSEFETNGTVNMLLYHDANGDEEYYNRRAYLSVPLDKYADAENPGQKITIKFKYYTYDKDGTAIESGKYCNPGFEYVPDKN”, for which the protein production result is given as “not failed”.
Next, “EDRNFVYLKRQVPMDVADKIKQMALPGIHQQPESRRYYPEGEVTAHIVGFNNVEDQGQEGVELTFNQQLSGQPGSRRVIKDRLGRVIEDVQAVTLPVDGRDLRLSID”: “failed”; “EELQALVDNIPAAIYHLDVSGQATIRFRPPAFLKTLVSEHAGTTRLNTLSMIHHDDRHMLSNAYSKLREAKHSLTLVYRIVTPEGKLHWIEDHMRSSFSDDGLFSGIDGILCEVT”: “not failed”; “EGLDYLTAPNPPSIREELCTASHDTITVHWISDDEFSISSYELQYTIFTGQANFISLYNSVDSWMIVPNIKQNHYTVHGLQSGTRYIFIVKAINQAGSRNSEPTRLKTNSQPFK”: “not failed”.
In the case of “EHIVPSNQQQIVRVLRTPGNNLHEVETAQGQRFLVSMPSKYRKNIWIKRGDFLIVDPIEEGEKVKAEISFVLCKDHVRSLQKEGFWPEAFSEVAEKHN” it was “not failed”; in that of “EIHHRKPHGPEAALENVDAKIAKLMGEGYAFEEVKRALEIAQNNVEVARSILREFAFPPPVSPRLNL”, “failed”.
As for “EKAVLIGEKEADITFVTWGSQKGPILDVIEDLKEEGISANLLYLKMFSPFPTEFVKNVLSSANLVIDVESNYTAQAAQMIKLYTGIDIKNKILKYNGRHMTEDEILKSAKEILNK”, the protein production entry was “not failed”.
For “EKKEGHFSALPSLPVGSHAKVSSPQPRGPRYAEGTFISDYSIAMDKIHQQDFVNWLLAQKGKKNDWKHNITQREARALELASQANRKEEEAVEPQSSPAKNPSDEDLLRDLLIQELLACLLDQTNLCRLRSR”, the protein production result is “failed”.
With “ELCNALADKISLKDRFGFSLYIALFDKVSSLGSGSDHVMDAISQCEQYAKEQGAQERNAPWRLFFRKEVFTPWHSPSEDNVATNLIYQQVVRGVKFGEYRCEKEDDLAELASQQYFVDYGSEMILERLLNLVPTYIPDREITPLKTLEKWAQLAIAAHKKGIYAQRRTDAQKVKEDVVSYARFKWPLLFSRFYEAYKFSGPSLPKNDVIVAVNWTGVYFVDEQEQVLLELSFPEIMAVSSSRECRVWLSLGCSDLGCAAPHSGWAGLTPAGPCSPCWSCRGAKTTAPSFTLATIKGDEYTFTSSNAEDIRDLVVTFLEGLRKRSKYVVALQDNPNPAGEESGFLSFAKGDLIILDHDTGEQVMNSGWANGINERTKQRGDFPTDCVYVMPTVTMPPREIVALVTMTPDQRQDVVRLLQLRTAEPEVRAKPYTLEEFSYDYFRPPPKHTLSRVMVSKARGKDRLWSHTREPLKQA”, the protein production entry is on record as “failed”.
In the case of “ELEHQISGTSKEALLDDIRSLIDSASYTYIRQREMKGLGHAILTGRELVGDEPFAVVLADDLCVNEEQGVLAQMVELYKQFRCSIVAVQEVPETETHKYGVIAGEMIKDDIFRIDNMVEKPEPGTAPSNLAIIGRYILTPDIFELIENTEPGKGGEIQITDALMQQAQSGCVIAYKFKGQRFDCGSVEGYIEATNYCYENLYKKASSAELAKTPTVKVSEPA” it was “failed”.
Turning to “ELLKSGKAKDRFEGEENAPVTIVEYASLTCVHCAHFYNDVLPQIRKKYIKTGKVKLIFRDFAFDSRATAGFMLARCAPEDRYFPLIEVLFQKQSEWVWARDAVTPLKKIGLMAGFTDESFNACLKNQSILDEVNASFERGKELGVNATPTFFINGNKYEGAMSVEAFFSVIDSFLKN”, the protein production entry is “not failed”.
Consider “ELQAGFDKQEYMETLKINYKVHIALDKWAANTSVADPQDFDFVYRSPVVAFDNIWDLWKHKNKSVALISVQGSIQTEASFLANLYAAMIPAKGELQLDKDFKFTYQLADNPHAAVHVGWFVAMAYLSKTVVSKIDSCYNAGIKDFILTGHSQGGGITFLLNSYLENLKMQGRLPADIRFKTYCSAGPKPGNLFYAYEYEHMTAGGWAYNVVNTADWVPDVPFSVQTVTDFTAVNPFHGAKKAIRKQRFPANLALKHMYNKMSKPSERAQKNYQKYLGRMVSNAVKKQIPNFNAPEYYNSNYYVRTGNTIVLFPDEAYYKIYSNDPEDPNIWRHHLP”, for which the protein production result was “failed”.
Take “ELQRRKLLQENILNSIPLPIHIKDVEDDFRYVFCNEESMRMFGTHEGETVCSVLDSEQAERMQKTDLEVFTTGKPYFGVERIILKDGRSYDTIVRKNIIYDGTKRLLLNIRWD”: the protein production result was “failed”.
For “ELQVIQPEKSVSVAAGESATLRCAMTSLIPVGPIMWFRGAGAGRELIYNQKEGHFPRVTTVSELTKRNNLDFSISISNITPADAGTYYCVKFRKGSPDDVEFKSGAGTELSVRAKPSAPVVSG”, the protein production result was “not failed”.
With “ELSERQRAEQKLLEVNQLQKGIFDVANYMIISTDRRGIISTFNRTAEEILGYTAAELIGQQTPLIFHDQEEMASEAVQLSQQLQQTIRPNSIDMFAIPAIQWGVYEREWTYITKTGDRLPVYVSITALRDDQGKVDGLVGV”, the protein production result is on record as “failed”.
Turning to “ELTAQHVMTPRVRVSALQSSATAEDVVNLTRATGLSRFPVYRDRIDEIVGMVHLKDALAIPSRDRLRTPVGRIAQPPLLVPETLPVQPLLARLRSEQPIAVVVDEYGGTAGVVTLEDIVEELVGEVRDEHDGQDLPELAVAPPEDGRPAWDADGSCRVDILQRIGLDV”, the protein production entry is listed as “not failed”.
Next, “ELVVKRGEIFGVVGPTGSGKSNLISDIEQLAQGDTPSNRKILVNGNVPDTEMRRDPRKRRIAQLSQNMNFLADMTVEEFLIMHAKSRGMNSEGIVDKVIKLANNLTGEPIEKDYNLTILSGGQSRSLMVADVAVISDSPIVLIDEIENAGIKKHEALELLAGCGKIVMVITHDPVLALMTTRRVVMRNGGMNEIIETTE”: “failed”; “ENEIERPEDMRVRTLANKSKMKVSIVQQIDRKVALDDIAVSHGLDFPELLSEVETIVYSGTRINIDYFINEVMDEDHLEDIFEYFKESTTDSLEEAMQELGKDYSEEEIRLVRIKFLSEMAN”: “not failed”.
In the case of “EPAEIKIIREAYKKAFLFVNKGLNTDELGQKEEAKNYYKQGIGHLLRGISISSKESEHTGPGWESARQMQQKMKETLQNVRTRLEILEKGLATSLQNDLQEVP”, the protein production result is listed as “not failed”.
Next, “EPPKLVNDKPHKFKDHFFKKPKFCDVCARMIVLNNKFGLRCKNCKTNIHEHCQSYVEMQRC”: “not failed”; “EQMTRDEIEYMLSKSEATLDAEEIEMLQGVFSLDEMMAREVMVPRTDAFMIDINDDPLENIQEILKQSFSRIPVYDVDKDKIIGLIHTKRLLESGFRQGFDQINMRKMLQEPLFVPETIFVDDLLRQLRNTQNQMAILLDEYGGVAGLVTLEDLLEEIVGEID”: “failed”.
Take “EQVFQGKLTTVGNPKGNVTLVEFFDYQCIHCKKMASTIENLVKKDSGLRVIYKEFPIFGKTSDLASRVALAAGMQGKYQAMHNALITIDKRLDEKTVMDAAKSIGLDMQKLKKDMDSQEVTDILDANRQLAEKLHLMGTPAFIIGSTPDGQYKKGSEISFIPGATSEQSLRELIKKAAGN”: the protein production entry is “failed”.
Consider “ERLRGVSVEAPTRTGERWNALMDQIVEGVLAWHRIDSHGCVGNVDSTQENDWFSWYQQRVEVLWATLSNMNSPLMTLEDRAVLYRARAALNSLFAGFDDSSVLVHGNLTLRSMLKDPRSDQLLAMLNPGPMLWAPREYDLFRLSEEGMPSQLFYRYLSKAPVSESFVARRWLYTLWELVSRFIHTGNLDRTLFDNAAQQLLPWLE”, for which the protein production entry is listed as “failed”.
Take “ESKSPIIQNVLSYITEHFSEGMSLKTLGNDFHINAVYLGQLFQKEMGEHFTDYLNRYRVNYAKEELLQTKDNLTIIAGKSGYTDMAYFYRQFKKHTGETPNRYRKIHQ”: the protein production result was “not failed”.
Consider “ESPLYCVMAKADGPVQGLADLKGRKVGFSVAGIEEALLHTMLRTNGVEPAEVEFVNVNFALTPALASGQADAVAGAFRNFELHQIAAAGSEGRCFLPEENGVPSYEELIYVANPDRMDREKVVAFLKVTERAAGFIADHPEEAWEIFRG”, for which the protein production result was “failed”.
With “ESRLDRILESGVLRVATTGDYKPFSYRTEEGGYAGFDVDMAQRLAESLGAKLVVVPTSWPNLMRDFADDRFDIAMSGISINLERQRQAYFSIPYLRDGKTPITLCSEEARFQTLEQIDQPGVTAIVNPGGTNEKFARANLKKARILVHPDNVTIFQQIVDGKADLMMTDAIEARLQSRLHPELCAVHPQQPFDFAEKAYLLPRDEAFKRYVDQWLHIAEQSGLLRQ”, the protein production result is reported as “failed”.
Next, “ETNEITIGITVTTTGPAAALGIPERNALEFVAKEIGGHPLKVIVLDDGGDPTAATTNARRFVTESKADVIMGSSVTPPTVAVSNVANEAQVPHIALAPLPITPERAKWSVAMPQPIPIMGKVLYEHMKKNNIKTVGYIGYSDSYGDLWFNDLKKQGEAMGLKIVAEERFARPDTSVAGQVLKLVAANPDAILVGASGTAAALPQTSLRERGYKGLIYQTHGAASMDFIRIAGKSAEGVLMASGPVMDPEGQDDSALTKKPGLELNTAYEAKYGPNSRSQFAAHSFDAFKVLERVVPVALKTAKPGTQEFREAIRKALVSEKDIAASQGVYSFTETDRYGLDDRSRILLTVKDGKYVMVK”: “not failed”.
For “ETQPESAAFTAPSTDNPIRINFNENPLGMSPKAQAAARDAVVKANRYAKNEILMLGNKLAAHHQVEAPSILLTAGSSEGIRAAIEAYASLEAQLVIPELTYGDGEHFAKIAGMKVTKVKMLDNWAFDIEGLKAAVAAYSGPSIVYLVNPNNPTGTITPADVIEPWIASKPANTMFIVDEAYAEFVNDPRFRSISPMITQGAENIILLKTFSKIHAMAGMRVGYAVAHPTVIALMGRYVAGEKINFSGVDAALASMNDSAFITYSKKSNDVSRQILLKALEDLKLPYLPSEGNFVFHQLVVPLKDYQTHMADAGVLIGRAFPPADNWCRISLGTPQEMQWVADTMREFRKKSWI”, the protein production entry is “not failed”.
For the sequence “EVPIGFDTDELSFDMSLVLLTGDMQTKASDPNYTYATTEELTIQNCHVAVFDKDGKRIYFKNFYSKDLGEMKTIGNLSGYELQLEGVRTFGKEDKKVSVLVVANANNANNSPFDNLTTYDGVDNSYTAKTIAKGPVTASLLVKIGKSETTLKYNQDNAPVTVSLIQLSAKIEYTGVYKKENGELLEGFSLTKVAGLNASSKITIFNTSAVENGAFSDLAYPTTKPVTFYTYEISDAFKEVILSVQSGVEPKEYPFPANKFIKGNYYRIKGLKSSTEIEWVLENVEDKEVTLDPFE”, the protein production result is listed as “not failed”.
Turning to “EVSYAKERVRLITASGRTHDLTVELAVDPSQREQGLMYRRQMAPDHGMLFDFGETRPVMMWMKNTYLPLDMLFIASDGTIRTIHENAVPHSEAIIDSREPVAYVLELNAGTVKRLGVSPGDRLEGAGLPATKRAN”, the protein production entry was “not failed”.
As for “FDFKAGEEVLARWTDCRYYPAKIEAINKEGTFTVQFYDGVIRCLKRMHIKAMPEDAKGQDWIALVKA”, the protein production result was “not failed”.
